This series concerns the molecule itself. In words: MST.

Here are results for one protein from publication PMC10686051 (Nature structural & molecular biology, 2023).

B1: MRE11 structured-domain (1–411 aa) (domain or fragment, UniProt P49959 1-411, looked up)
chain: MSTADALDDENTFKILVATDIHLGFMEKDAVRGNDTFVTLDEILRLAQENEVDFILLGGDLFHENKPSRKTLHTCLELLRKYCMGDRPVQFEILSDQSVNFGFSKFPWVNYQDGNLNISIPVFSIHGNHDDPTGADALCALDILSCAGFVNHFGRSMSVEKIDISPVLLQKGSTKIALYGLGSIPDERLYRMFVNKKVTMLRPKEDENSWFNLFVIHQNRSKHGSTNFIPEQFLDDFIDLVIWGHEHECKIAPTKNEQQLFYISQPGSSVVTSLSPGEAVKKHVGLLRIKGRKMNMHKIPLHTVRQFFMEDIVLANHPDIFNPDNPKVTQAIQSFCLEKIEEMLENAERERLGNSHQPEKPLVRLRVDYSGGFEPFSVLRFSQKFVDRVANPKDIIHFFRHREQKEKTGEE
modifications: amine-reactive AlexaFluor-647 dye on the labeled copy; the titrated copy is unlabeled
For the protein B1, the Kd stood at 370 ± 80 nM.

In general, Kd refers to the free concentration of one partner at which half of the binding sites on the other are occupied at equilibrium, for simple one-to-one binding. Low readings indicate tighter binding, high ones weaker binding.
